These results are taken from patent US9815881B2, “Method of inducing labor or treating pre-eclampsia by administering relaxin analogs” (The Board of Trustees of the Leland Stanford Junior …, priority 2009, dated 2017).

Assay [1] has as its target T1, LGR7 (Homo sapiens, UniProt Q9HBX9).
T1 construct: HEK293T cells stably expressing recombinant LGR7 or LGR8; expressed in transfected cells
T1 sequence (Q9HBX9 1-757): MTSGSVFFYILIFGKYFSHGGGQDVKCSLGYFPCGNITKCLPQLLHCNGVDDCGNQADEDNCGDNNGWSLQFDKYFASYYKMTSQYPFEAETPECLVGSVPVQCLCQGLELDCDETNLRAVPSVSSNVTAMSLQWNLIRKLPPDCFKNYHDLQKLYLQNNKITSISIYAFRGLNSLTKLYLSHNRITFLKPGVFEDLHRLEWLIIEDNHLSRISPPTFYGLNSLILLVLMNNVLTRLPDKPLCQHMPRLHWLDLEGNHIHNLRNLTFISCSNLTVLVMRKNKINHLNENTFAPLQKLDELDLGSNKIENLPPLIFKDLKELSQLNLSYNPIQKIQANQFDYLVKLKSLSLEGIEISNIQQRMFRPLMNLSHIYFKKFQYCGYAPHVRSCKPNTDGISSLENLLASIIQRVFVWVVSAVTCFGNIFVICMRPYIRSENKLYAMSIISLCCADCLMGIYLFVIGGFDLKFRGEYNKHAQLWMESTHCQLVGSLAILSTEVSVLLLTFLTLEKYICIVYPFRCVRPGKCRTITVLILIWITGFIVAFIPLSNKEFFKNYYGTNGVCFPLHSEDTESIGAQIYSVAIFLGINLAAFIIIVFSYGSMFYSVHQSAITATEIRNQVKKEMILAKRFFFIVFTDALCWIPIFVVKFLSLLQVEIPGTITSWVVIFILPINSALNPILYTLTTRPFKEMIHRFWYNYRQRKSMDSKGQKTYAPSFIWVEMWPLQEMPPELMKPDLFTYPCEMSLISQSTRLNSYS
The assay can be described thus: Receptor-binding assay: competition for 125I-labeled RLN2 binding to LGR7-expressing HEK293T cells. The note with it: for LGR7-binding activity (result in words): competition for labeled RLN2 binding to LGR7. Here is the method:
(§1) To determine the binding characteristics of wild type and mutant peptides, HEK293T cells expressing LGR7 or LGR8 were grown to 90% confluence, collected by centrifugation at 3000×g for 2 min, and washed two times in 2 ml of ice-cold binding buffer. Cells were resuspended in ice-cold binding buffer, and aliquots of cell suspension were incubated with increasing doses of purified recombinant peptides in the presence of 0.025 pmol of ^125I-labeled RLN2 tracer (Phoenix Pharmaceuticals, Burlingame, Calif.) at room temperature for 2 h. After washing three times in an ice-cold binding buffer, radioactivity bound to the cells was measured using a γ-counter (EG&G Wallace, Gaithersburg, Md.). Total binding was determined in the absence, and nonspecific binding in the presence, of 25 nmol of unlabeled RLN2. In regular assays, total binding was ˜30,000 cpm, and nonspecific binding amounted to less than 20% of the total binding. Data points were collected in triplicate, and similar results were obtained in at least two independent assays.
(§2) Receptor-activation and receptor binding activity curves generated in nonlinear regression analyses (Prism; GraphPad Software, San Diego, Calif.) were evaluated relative to the samples without hormone treatment. In all cases data are reported as the mean±S.E. of assays in triplicate or quadruplicate. Statistically significant responses (p<0.05) were determined for each stimulated response to the average nonspecific response from control samples using analysis of variance and Student's t test.

The target in assay [2] is T1, LGR7. The assay can be described thus: Receptor-activation analysis: cAMP production in LGR7-expressing HEK293T cells. The assay is classed as cell-based. The note with it: for LGR7-activation activity (result in words): LGR7-expressing HEK293T cells; for pEC50 on the activation of LGR7: HEK293T cells stably expressing LGR7, mean ± S.E., ND = pEC50 not measurable. The protocol: (§3) The bioactivity of relaxin family peptides was determined based on the stimulation of adenylate cyclase activity in HEK293T cells stably expressing recombinant LGR7 or LGR8. Stable LGR7- or LGR8-expressing cells were maintained in Dulbecco's modified Eagle's medium/F-12 media supplemented with […] Zeocin (Invitrogen). After seeding at a density of 2×10^5 cells per well in 500 μl of Dulbecco's modified Eagle's medium/F-12 medium containing 0.1% bovine serum albumin in 48-well plates, cells were preincubated at 37° C. for 30 min in the presence of 0.25 mM 3-isobutyl-1-methylxanthine before treatment with increasing concentrations of peptides (from 0 to 100 nM) in quadruplicate. Twelve hours after treatment, the culture was reacted with acetic anhydride/triethylamine, and total cAMP content in cell lysates was measured using a specific cAMP radioimmunoassay. A nontagged human RLN2 peptide was used as a standard to verify the bioactivity of tagged RLN2 peptides.
as §2
(In general: Cyclic AMP is a second messenger, typically raised through Gs and lowered through Gi signalling.)

Assay [3] concerns the target T2, LGR8 (Homo sapiens, UniProt Q8WXD0).
T2 construct: HEK293T cells stably expressing recombinant LGR7 or LGR8; expressed in transfected cells
The assay can be described thus: Receptor-activation analysis: cAMP production in LGR8-expressing HEK293T cells. The format is cell-based. The note with it: for LGR8-activation activity (result in words): LGR8-expressing HEK293T cells. Here is the method:
as §3, §2

The target in assay [4] is T2, LGR8. The assay can be described thus: Receptor-binding assay: competition for 125I-labeled RLN2 binding to LGR8-expressing HEK293T cells. As to conditions: for LGR8-binding activity (result in words): competition for labeled RLN2 binding to LGR8. Here is the method:
as §1, §2

Entries after “also recorded” stand apart in the source; their conditions may differ. Where no end group is shown, it is not given here.

T2 sequence (Q8WXD0 whole entry): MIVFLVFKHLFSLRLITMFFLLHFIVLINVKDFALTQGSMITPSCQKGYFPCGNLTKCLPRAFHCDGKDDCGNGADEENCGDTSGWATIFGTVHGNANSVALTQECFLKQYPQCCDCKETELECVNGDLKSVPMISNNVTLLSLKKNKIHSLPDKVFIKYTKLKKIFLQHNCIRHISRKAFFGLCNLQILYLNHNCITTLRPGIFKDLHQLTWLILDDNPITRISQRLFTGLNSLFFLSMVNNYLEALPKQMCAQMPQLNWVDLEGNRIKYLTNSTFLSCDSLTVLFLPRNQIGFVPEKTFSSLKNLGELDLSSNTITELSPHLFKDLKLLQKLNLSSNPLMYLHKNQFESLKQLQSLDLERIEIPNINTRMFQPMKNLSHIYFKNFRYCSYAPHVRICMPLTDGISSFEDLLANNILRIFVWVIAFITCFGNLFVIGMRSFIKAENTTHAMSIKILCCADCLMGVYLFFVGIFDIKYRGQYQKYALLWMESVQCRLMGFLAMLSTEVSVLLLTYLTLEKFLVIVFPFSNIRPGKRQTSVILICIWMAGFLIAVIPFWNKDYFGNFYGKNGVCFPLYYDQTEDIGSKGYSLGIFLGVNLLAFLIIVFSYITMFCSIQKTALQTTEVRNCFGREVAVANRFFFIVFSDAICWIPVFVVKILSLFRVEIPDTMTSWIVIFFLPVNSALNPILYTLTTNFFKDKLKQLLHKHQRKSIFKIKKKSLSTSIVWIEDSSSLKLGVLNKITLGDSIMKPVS

On to “RLN2 C-8: Myc- and His6-tagged RLN2 from construct with a truncated C-domain of 8 amino acids (chain 1 SWMEEVIKLCGRELVRAQIAICGMSTWSHHHHHH; chain 2 QLYSALANKCCHVGCTKRSLARFC; ends and bridges not checked; also: Myc tag, not in given chain)”, for which the “LGR7-binding activity (result in words)” value with LGR7 [1] is recorded as “high affinity”.
“RLN2 K^A17A: RLN2 mutant with alanine substitution at LysA17 of the A chain (chain 1 SWMEEVIKLCGRELVRAQIAICGMSTWSHHHHHH; chain 2 QLYSALANKCCHVGCTARSLARFC; not fully specified; ends and bridges not checked)”: in the assay with LGR7 [2], the “LGR7-activation activity (result in words)” value (shortened to “LGR7-activation activity”) was “high potencies on the activation of both LGR7 and LGR8”. Moreover, the “LGR8-activation activity (result in words)” value (shortened to “LGR8-activation activity”) in the assay with LGR8 [3] was “significantly enhanced LGR8-activation activity”; with LGR8 [3] (listed as RLN2 KA17A), “high potencies on the activation of both LGR7 and LGR8”.
As to “RLN2 P^A23A: RLN2 mutant with alanine substitution at the PheA23 position (chain 1 SWMEEVIKLCGRELVRAQIAICGMSTWSHHHHHH; chain 2 QLYSALANKCCHVGCTKRSLARAC; not fully specified; ends and bridges not checked)”, the “LGR8-binding activity (result in words)” value with LGR8 [4] (listed as RLN2 FA23A) is on record as “significantly reduced the affinity for LGR8”; in the assay with LGR8 [4] (listed as RLN2 F^A23A) it was “significantly reduced”. Besides, the “LGR7-binding activity (result in words)” value with LGR7 [1] (listed as RLN2 FA23A) is reported as “affinities similar to that of wild type peptides”; with LGR7 [1] (listed as RLN2 F^A23A) it was “without an effect on LGR7-binding activity”. Besides, the “LGR7-activation activity” value with LGR7 [2] (listed as FA23A) is recorded as “preferentially activate LGR7”; with LGR7 [2] (listed as RLN2 FA23A) it was “retains an LGR7-activation activity similar to that of wild type peptides”. Also, the “LGR8-activation activity” value in the assay with LGR8 [3] (listed as RLN2 FA23A) is listed as “lacks an LGR8-activation activity”; with LGR8 [3] (listed as RLN2 F^A23A), “ablated”.
Consider “RLN2 R^A22A: RLN2 mutant with alanine substitution at the ArgA22 position (chain 1 SWMEEVIKLCGRELVRAQIAICGMSTWSHHHHHH; chain 2 QLYSALANKCCHVGCTKRSLAAFC; not fully specified; ends and bridges not checked)”, for which the “LGR7-binding activity (result in words)” value in the assay with LGR7 [1] was “affinities similar to that of wild type peptides”. In addition, in the assay with LGR7 [2], the “LGR7-activation activity” value is “minimal effect”. The “LGR8-activation activity” value with LGR8 [3] was “minimal effect”.
Consider “RLN2 R^B12A: RLN2 mutant with alanine substitution of ArgB12 in the B chain RXXXRXXI motif (chain 1 SWMEEVIKLCGAELVRAQIAICGMSTWSHHHHHH; chain 2 QLYSALANKCCHVGCTKRSLARFC; not fully specified; ends and bridges not checked)”, for which, in the assay with LGR7 [2], the “LGR7-activation activity” value was “abolished the LGR7- and LGR8-activation activities”. The “LGR8-activation activity” value with LGR8 [3] was “abolished the LGR7- and LGR8-activation activities”.
Turning to “RLN2 R^B16A: RLN2 mutant with alanine substitution of ArgB16 in the B chain RXXXRXXI motif (chain 1 SWMEEVIKLCGRELVAAQIAICGMSTWSHHHHHH; chain 2 QLYSALANKCCHVGCTKRSLARFC; not fully specified; ends and bridges not checked)”, the “LGR7-activation activity” value with LGR7 [2] was “abolished the LGR7- and LGR8-activation activities”. The “LGR8-activation activity” value with LGR8 [3] was “abolished the LGR7- and LGR8-activation activities”.
On to “RLN2 T^A16A: RLN2 mutant with alanine substitution at ThrA16 of the A chain (chain 1 SWMEEVIKLCGRELVRAQIAICGMSTWSHHHHHH; chain 2 QLYSALANKCCHVGCAKRSLARFC; not fully specified; ends and bridges not checked)”, for which the “LGR7-activation activity” value in the assay with LGR7 [2] is “high potencies on the activation of both LGR7 and LGR8”. The “LGR8-activation activity” value was “significantly enhanced LGR8-activation activity” with LGR8 [3]; “high potencies on the activation of both LGR7 and LGR8” with LGR8 [3] (listed as RLN2 TA16A).
For “RLN2^A22-23: RLN2 mutant with alanine substitution at the A22-23 region of the A chain (chain 1 SWMEEVIKLCGRELVRAQIAICGMSTWSHHHHHH; chain 2 QLYSALANKCCHVGCTKRSLAAAC; not fully specified; ends and bridges not checked)”, the “LGR8-binding activity (result in words)” value in the assay with LGR8 [4] is “lost its LGR8-binding activity”. The “LGR7-binding activity (result in words)” value with LGR7 [1] is given as “reduced affinity for LGR7”. In addition, the “LGR8-activation activity” value with LGR8 [3] is given as “ablates LGR8, but not LGR7, activation activity; also recorded: almost abolished”.
Regarding “WT RLN2 (His2): recombinant wild type RLN2 with N-terminal Myc tag and His6 tag at the N or C terminus of the B chain (position 2) (chain 1 SWMEEVIKLCGRELVRAQIAICGMSTWS; chain 2 QLYSALANKCCHVGCTKRSLARFC; not fully specified; ends and bridges not checked; also: N-terminal Myc tag)”, the “pEC50 on the activation of LGR7” value with LGR7 [2] amounted to 8.77 ± 0.10.
As to “WT RLN3: recombinant wild type human relaxin 3 [reference compound]”, in the assay with LGR7 [2], the “pEC50 on the activation of LGR7” value was determined as 7.73 ± 0.07 and the “LGR7-activation activity” value is on record as “selectively activated”.

B1: WT RLN2: recombinant tagged wild type human relaxin H2 (RLN2) (protein, listed as Homo sapiens)
chain: MPRLFFFHLLGVCLLLNQFSRAVADSWMEEVIKLCGRELVRAQIAICGMSTWSKRSLSQEDAPQTPRPVAEIVPSFINKDTETINMMSEFVANLPQELKLTLSEMQPALPQLQQHVPVLKDSSLLFEEFKKLIRNRQSEAADSSPSELKYLGLDTHSRKKRQLYSALANKCCHVGCTKRSLARFC
modifications: tag; RLN2 polypeptide
Take B1: in the assay with LGR8 [4] (125I-labeled RLN2 tracer, LGR8-expressing HEK293T cells, mean ± S.E., ND = pIC50 not measurable), the “pIC50 in competition for RLN2 binding to LGR8” value turned out to be 7.90 ± 0.16. For the same molecule, the “pIC50 in competition for RLN2 binding to LGR7” value with LGR7 [1] (125I-labeled RLN2 tracer, LGR7-expressing HEK293T cells, mean ± S.E.) is listed as 8.72 ± 0.06. For the same molecule, in the assay with LGR7 [2], the “pEC50 on the activation of LGR7” value came out at 9.30 ± 0.04 and the “LGR7-activation activity” value is listed as “activates both receptors at the nanomolar range”. Also, the “pEC50 on the activation of LGR8” value in the assay with LGR8 [3] (HEK293T cells stably expressing LGR8, mean ± S.E., ND = pEC50 not measurable) came to 7.41 ± 0.14. In addition, the “LGR8-activation activity” value with LGR8 [3] is listed as “activates both receptors at the nanomolar range”.
